The target of assay [1] is Human CD38 (soluble analyte in the SPR assay) (human, UniProt P28907 43-300). The experiment in a line: SPR (Biacore), antibody captured on Protein A from supernatant, CD38 injected; weakest KD among the separate SPR experiments. A general note: In SPR one partner is held on a chip, and binding of the other changes the refractive index at the surface.
The target in assay [2] is T1, interferon-alpha/β receptor (IFNAR) (human, UniProt P17181).
T1 sequence (receptor (subunits not named in the filing), looked up): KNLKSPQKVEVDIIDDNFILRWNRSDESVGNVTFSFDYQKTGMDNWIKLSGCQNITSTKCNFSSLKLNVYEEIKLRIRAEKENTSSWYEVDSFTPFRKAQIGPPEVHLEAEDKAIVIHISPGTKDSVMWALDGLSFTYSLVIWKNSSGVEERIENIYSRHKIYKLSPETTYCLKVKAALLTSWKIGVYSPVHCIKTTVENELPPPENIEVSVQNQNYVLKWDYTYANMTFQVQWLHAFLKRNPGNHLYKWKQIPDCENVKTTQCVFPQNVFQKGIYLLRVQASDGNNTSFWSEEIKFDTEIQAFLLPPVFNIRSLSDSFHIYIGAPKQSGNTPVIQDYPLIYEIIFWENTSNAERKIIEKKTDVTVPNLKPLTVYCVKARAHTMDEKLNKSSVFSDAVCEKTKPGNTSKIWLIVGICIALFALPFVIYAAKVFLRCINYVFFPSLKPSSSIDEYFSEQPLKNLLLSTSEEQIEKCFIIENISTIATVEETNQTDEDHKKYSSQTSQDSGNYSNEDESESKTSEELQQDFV
Put plainly: cell-based or functional assay.

Assay [3] concerns the target T2, Human CD38 (human, UniProt P28907 43-300). The experiment in a line: SPR (Biacore), the experiment for all other antibodies of Table 7.
Assay [4] concerns the target T2, Human CD38. The experiment in a line: SPR (Biacore), the separate experiment in which X02.107 was evaluated.
The target in assay [5] is T3, Human CD38 on CD38-positive myeloma cells (ARP-1, H929) (human, UniProt P28907 43-300).
T3 construct: Endogenous CD38 on the human myeloma cell lines ARP-1 and H929, used in flow cytometry; also called NCI-H929
The experiment in a line: flow cytometry, ARP-1 cells (CD38-positive). A general note: In flow cytometry, cells or beads pass a laser one at a time.

Assay [6] addresses T2, Human CD38. Put plainly: SPR (Biacore), antibody from supernatant captured on Protein A, human CD38 injected, 1:1 fit.
In assay [7] the target is Human CD38 on CD38-positive myeloma cell lines ARP-1 and H929 (human, UniProt P28907 43-300). The experiment in a line: flow cytometry on ARP-1 cells, purified protein.
Assay [8] addresses T2, Human CD38. The experiment in a line: SPR (Biacore), antibody from supernatant captured on Protein A, human CD38 injected, 1:1 fit. The source holds these as a separate data set.
Assay [9] concerns the target T3, Human CD38 on CD38-positive myeloma …. The experiment in a line: flow cytometry, ARP-1 cells (CD38-positive). The source holds these as a separate data set.
Assay [10] shares this target. Put plainly: flow cytometry, ARP-1 cells (CD38-positive). The source holds these as a separate data set.
For assay [11], the target named is T2, Human CD38. Put plainly: SPR (Biacore), antibody from supernatant captured on Protein A, human CD38 injected, 1:1 fit. The source holds these as a separate data set.
Assay [12] concerns the target T3, Human CD38 on CD38-positive myeloma …. Put plainly: flow cytometry, ARP-1 cells (CD38-positive). The source holds these as a separate data set.
The target in assay [13] is T2, Human CD38. The experiment in a line: SPR (Biacore), antibody from supernatant captured on Protein A, human CD38 injected, 1:1 fit. This is another data set of the same source.
For assay [14], the target named is T2, Human CD38. The description is as above. The source holds these as a separate data set.
Assay [15] addresses T3, Human CD38 on CD38-positive myeloma …. Put plainly: flow cytometry, ARP-1 cells (CD38-positive). The source holds these as a separate data set.
The target of assay [16] is T2, Human CD38. The experiment in a line: SPR (Biacore), antibody from supernatant captured on Protein A, human CD38 injected, 1:1 fit. This is another data set of the same source.
Assay [17] has as its target T2, Human CD38. Put plainly: SPR (Biacore), antibody from supernatant captured on Protein A, human CD38 injected, 1:1 fit; separate experiment in which X02.1 gave 2.7 × 10^-8.

Consider 23 molecules from US20180305460A1 (Teva, published 2018).

Where a chain is given by its changes, count along the chain named. Numbers in names are those of the source. Read-outs that look alike come from different tables or passages of the source.

B1: X02.1 (antibody, human IgG4 S228P, lambda)
heavy: not shown
light: QAVLTQPASLSASPGESARLTCTLPSDINVRYYNIYWYQQKPGSPPRYLLYYYSDSHKGQGSGVPSRFSGSKDVSTNSGILLISGLQSEDEADYYCMTWSSNGSGVFGGGTQLTVLGQPKAAPSVTLFPPSSEELQANKATLVCLISDFYPGAVTVAWKADSSPVKAGVETTTPSKQSNNKYAASSYLSLTPEQWKSHRSYSCQVTHEGSTVEKTVAPTECS
notes: also called parental antibody X02.1; unfused form of A02.1 (X355/02)
As for B1, the Kd in assay [1] is 0.378 to 27 nM.

B2: A02.6 (wt. IFN) (antibody)
chain 1: QLQLQESGPGLVKPSETLSLTCTVSGGSISSSSYYWSWIRQHPGKGLEWIGYIYYSGSTNYNPSLKSRVTISVDTSKNQFSLKLSSVTAADTAVYYCARVGGAGGWPMDVWGQGTTVTVSS
chain 2: QAVLTQPASLSASPGESARLTCTLPSDINVRYYNIYWYQQKPGSPPRYLLYYYSDSHKGQGSGVPSRFSGSKDVSTNSGILLISGLQSEDIATYYCMTWSSNGSGVFGGGTQLTVLG
As for B2, in [2], the “EC50; HEK-Blue IFN-alpha/β SEAP reporter (A630) on CD38-negative cells, the unit comes from the x axis 'IFN pM'” value was found to be 667 pM.

B3: X02.1 (antibody, human IgG4 S228P)
heavy: not shown
VL: B2 chain 2 with I91E, T93D
notes: Human IgG4 S228P, not fused to IFN; also called parental antibody X02.1
In the case of B3, the values for the Kd in the assay with Human CD38 [3] and in the assay with Human CD38 [4] were 0.378 nM and 27 nM, respectively.

B4: X02.85 (antibody, V domains shown)
VH: B2 chain 1 with S76L, F80I, K83R, S85T
VL: QAVLTQPASLSASPGESARLTCTLPSDINVRYYNIYWYQQKPGSPPRYLLYYYSDSHKGQGSGVPSRFSGSKSTNSGILLISGLQSEDEADYYCMTWSSNGSGVFGGGTQLTVLG
notes: IgG4 S228P with the X02.1 VH; VL residues D(L66A) and V(L66B) of A02.1 are deleted
Molecule B4 gave an EC50 in [5] of 6.3 µg/mL. In addition, the Kd with Human CD38 [6] was found to be 0.27 nM.

B5: A02.1 (antibody)
heavy: B2 chain 1 with S76L, F80I, K83R, S85T
light: B1 light
notes: Anti-CD38 IgG4 fused to attenuated IFN-alpha2b A145D at the heavy chain C-terminus; also called X355/02-HC-L0-IFN-alpha (A145D) IgG4
In assay [7], B5 returned an EC50 of 1.45 µg/mL.

B6: X02.8 (antibody, human IgG4 S228P)
heavy: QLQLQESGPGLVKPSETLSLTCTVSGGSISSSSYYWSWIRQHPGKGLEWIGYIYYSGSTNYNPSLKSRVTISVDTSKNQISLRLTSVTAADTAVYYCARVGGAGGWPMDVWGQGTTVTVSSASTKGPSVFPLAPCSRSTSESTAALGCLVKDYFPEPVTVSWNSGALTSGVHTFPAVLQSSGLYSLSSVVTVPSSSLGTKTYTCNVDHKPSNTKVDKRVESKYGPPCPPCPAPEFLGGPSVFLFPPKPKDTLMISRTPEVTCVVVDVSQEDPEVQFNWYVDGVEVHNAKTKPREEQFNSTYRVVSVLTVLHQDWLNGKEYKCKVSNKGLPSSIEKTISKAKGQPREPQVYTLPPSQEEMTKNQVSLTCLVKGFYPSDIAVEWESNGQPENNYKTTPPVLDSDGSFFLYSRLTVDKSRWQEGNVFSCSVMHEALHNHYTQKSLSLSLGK
VL: B2 chain 2 with I91E, T93D
notes: IgG4 S228P; VH L74S relative to X02.1
In the assay with Human CD38 [8], B6 came in with a Kd of 23 nM. Also, the EC50 in assay [9] was found to be 18.3 µg/mL.

B7: X02.11 (antibody, human IgG4 S228P)
heavy: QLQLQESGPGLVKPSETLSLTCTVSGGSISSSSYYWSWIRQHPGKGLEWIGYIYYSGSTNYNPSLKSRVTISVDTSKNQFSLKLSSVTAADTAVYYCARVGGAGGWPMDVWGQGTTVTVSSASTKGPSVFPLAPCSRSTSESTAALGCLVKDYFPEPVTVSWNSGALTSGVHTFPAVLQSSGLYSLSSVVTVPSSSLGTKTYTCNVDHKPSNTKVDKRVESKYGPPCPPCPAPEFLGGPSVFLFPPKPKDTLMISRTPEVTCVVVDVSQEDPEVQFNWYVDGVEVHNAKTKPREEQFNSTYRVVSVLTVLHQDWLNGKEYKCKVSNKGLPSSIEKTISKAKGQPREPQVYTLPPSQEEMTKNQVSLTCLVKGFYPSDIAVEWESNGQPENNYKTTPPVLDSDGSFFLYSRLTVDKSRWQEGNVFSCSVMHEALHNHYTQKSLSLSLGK
VL: B2 chain 2 with I91E, T93D
notes: IgG4 S228P; VH L74S, I78F, R81K, T(82A)S relative to X02.1
On to B7, for which the Kd with Human CD38 [8] was 23.9 nM. In assay [9], this molecule showed an EC50 of 18.1 µg/mL.

B8: X02.69 (antibody, human IgG4 S228P)
heavy: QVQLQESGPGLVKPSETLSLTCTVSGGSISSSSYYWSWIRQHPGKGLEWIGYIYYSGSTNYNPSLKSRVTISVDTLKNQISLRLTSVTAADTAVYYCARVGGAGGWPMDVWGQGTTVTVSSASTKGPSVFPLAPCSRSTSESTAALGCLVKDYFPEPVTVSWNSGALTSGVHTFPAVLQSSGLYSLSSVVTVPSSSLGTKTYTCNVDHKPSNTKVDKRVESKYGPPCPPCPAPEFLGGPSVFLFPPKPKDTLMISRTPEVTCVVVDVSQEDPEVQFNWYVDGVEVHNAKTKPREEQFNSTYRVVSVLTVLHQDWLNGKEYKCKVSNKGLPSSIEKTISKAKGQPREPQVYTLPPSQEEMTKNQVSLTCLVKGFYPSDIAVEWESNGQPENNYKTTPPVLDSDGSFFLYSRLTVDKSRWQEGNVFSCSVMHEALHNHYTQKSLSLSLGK
VL: B2 chain 2 with I91E, T93D
notes: IgG4 S228P; VH Q2V relative to X02.1
B8: the EC50 in assay [10] stood at 16.8 µg/mL. The molecule further registered a Kd with Human CD38 [11] of 0.0368 nM.

B9: X02.70 (antibody, human IgG4 S228P)
heavy: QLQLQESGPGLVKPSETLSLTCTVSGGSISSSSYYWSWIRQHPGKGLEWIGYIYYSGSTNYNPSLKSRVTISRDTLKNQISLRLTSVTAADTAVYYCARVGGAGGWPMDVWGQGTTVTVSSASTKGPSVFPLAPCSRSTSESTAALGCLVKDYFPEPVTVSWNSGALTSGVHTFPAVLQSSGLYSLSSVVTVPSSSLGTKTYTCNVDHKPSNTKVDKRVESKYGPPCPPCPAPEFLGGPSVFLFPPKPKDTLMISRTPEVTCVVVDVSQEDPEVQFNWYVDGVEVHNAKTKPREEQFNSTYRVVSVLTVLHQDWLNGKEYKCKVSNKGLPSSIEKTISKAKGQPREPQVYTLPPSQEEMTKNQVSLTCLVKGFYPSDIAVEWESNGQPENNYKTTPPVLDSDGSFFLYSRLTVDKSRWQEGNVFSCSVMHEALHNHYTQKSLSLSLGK
VL: B2 chain 2 with I91E, T93D
notes: IgG4 S228P; VH V71R relative to X02.1
B9 gave an EC50 in assay [12] of 7.2 µg/mL. Further, the Kd with Human CD38 [13] turned out to be 3.54 nM.

B10: X02.102 (antibody, V domains shown)
VH: B2 chain 1 with S76L, F80I, K83R, S85T
VL: B2 chain 2 with T76A, I91E, T93D
notes: IgG4 S228P with the X02.1 VH; VL T68A relative to A02.1
B10 returned a Kd with Human CD38 [14] of 0.12 nM. The EC50 in [15] was found to be 20.4 µg/mL.

B11: X02.76 (antibody, human IgG4 S228P)
heavy: not shown
VL: B2 chain 2 with I91E, T93D
notes: IgG4 S228P; VH M(100C)L relative to X02.1
In the assay with Human CD38 [16], B11 returned a Kd of 0.000158 nM.

B12: X02.72 (antibody, human IgG4 S228P)
heavy: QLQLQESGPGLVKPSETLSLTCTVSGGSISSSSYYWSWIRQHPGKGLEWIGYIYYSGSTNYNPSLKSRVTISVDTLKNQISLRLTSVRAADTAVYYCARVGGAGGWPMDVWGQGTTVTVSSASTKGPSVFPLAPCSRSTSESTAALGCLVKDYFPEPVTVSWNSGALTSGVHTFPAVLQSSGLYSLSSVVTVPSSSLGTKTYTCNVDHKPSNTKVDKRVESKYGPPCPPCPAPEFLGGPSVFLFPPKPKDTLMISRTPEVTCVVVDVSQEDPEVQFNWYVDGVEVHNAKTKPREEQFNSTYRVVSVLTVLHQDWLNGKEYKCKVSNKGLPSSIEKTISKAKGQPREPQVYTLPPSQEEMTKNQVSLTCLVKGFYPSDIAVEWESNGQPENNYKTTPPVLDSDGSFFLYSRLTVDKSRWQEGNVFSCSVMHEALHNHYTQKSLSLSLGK
VL: B2 chain 2 with I91E, T93D
notes: IgG4 S228P; VH T83R relative to X02.1
On to B12, for which the EC50 in assay [12] stood at 3.6 µg/mL. In addition, binding in the assay with Human CD38 [13] was put at a Kd of 1.63 nM.

B13: X02.73 (antibody, human IgG4 S228P)
heavy: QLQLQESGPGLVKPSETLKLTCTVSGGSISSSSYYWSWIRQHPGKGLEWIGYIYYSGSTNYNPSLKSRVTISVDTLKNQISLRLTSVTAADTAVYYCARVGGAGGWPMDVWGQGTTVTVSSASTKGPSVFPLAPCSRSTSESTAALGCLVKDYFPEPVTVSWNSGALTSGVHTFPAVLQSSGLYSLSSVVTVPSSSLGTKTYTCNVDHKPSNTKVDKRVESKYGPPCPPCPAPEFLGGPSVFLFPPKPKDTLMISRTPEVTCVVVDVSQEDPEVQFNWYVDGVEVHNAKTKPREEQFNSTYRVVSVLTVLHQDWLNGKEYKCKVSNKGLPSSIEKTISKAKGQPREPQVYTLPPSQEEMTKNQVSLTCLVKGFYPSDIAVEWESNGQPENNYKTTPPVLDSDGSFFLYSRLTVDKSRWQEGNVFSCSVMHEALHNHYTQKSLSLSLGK
VL: B2 chain 2 with I91E, T93D
notes: IgG4 S228P; VH S19K relative to X02.1
Take B13: the midpoint of the response in assay [12], the EC50, lay at 4.3 µg/mL. Binding in the assay with Human CD38 [13] was characterised by a dissociation constant (Kd) of 0.385 nM.

B14: X02.75 (antibody, human IgG4 S228P)
heavy: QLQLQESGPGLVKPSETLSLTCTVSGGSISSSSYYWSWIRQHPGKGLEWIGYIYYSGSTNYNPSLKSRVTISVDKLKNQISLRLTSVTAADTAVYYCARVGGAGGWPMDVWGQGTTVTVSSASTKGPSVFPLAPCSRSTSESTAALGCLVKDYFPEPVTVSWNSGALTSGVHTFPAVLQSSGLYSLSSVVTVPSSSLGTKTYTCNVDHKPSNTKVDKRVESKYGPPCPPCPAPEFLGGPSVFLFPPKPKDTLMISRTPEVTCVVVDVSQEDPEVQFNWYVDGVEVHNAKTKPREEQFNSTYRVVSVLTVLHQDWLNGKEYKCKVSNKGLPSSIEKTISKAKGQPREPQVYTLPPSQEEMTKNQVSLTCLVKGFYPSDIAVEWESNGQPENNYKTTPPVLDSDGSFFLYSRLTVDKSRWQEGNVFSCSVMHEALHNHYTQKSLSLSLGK
VL: B2 chain 2 with I91E, T93D
notes: IgG4 S228P; VH T73K relative to X02.1
For B14, in [12], the EC50 worked out at 4.9 µg/mL. In the assay with Human CD38 [13], the dissociation constant Kd amounted to 0.638 nM.

B15: X02.103 (antibody, V domains shown)
VH: B2 chain 1 with S76L, F80I, K83R, S85T
VL: B2 chain 2 with S78T, I91E, T93D
notes: IgG4 S228P with the X02.1 VH; VL S70T relative to A02.1
In the assay with Human CD38 [14], B15 returned a Kd of 1.28 nM. Further, the midpoint of the response in assay [15], the EC50, lay at 9.4 µg/mL.

B16: X02.107 (antibody)
heavy: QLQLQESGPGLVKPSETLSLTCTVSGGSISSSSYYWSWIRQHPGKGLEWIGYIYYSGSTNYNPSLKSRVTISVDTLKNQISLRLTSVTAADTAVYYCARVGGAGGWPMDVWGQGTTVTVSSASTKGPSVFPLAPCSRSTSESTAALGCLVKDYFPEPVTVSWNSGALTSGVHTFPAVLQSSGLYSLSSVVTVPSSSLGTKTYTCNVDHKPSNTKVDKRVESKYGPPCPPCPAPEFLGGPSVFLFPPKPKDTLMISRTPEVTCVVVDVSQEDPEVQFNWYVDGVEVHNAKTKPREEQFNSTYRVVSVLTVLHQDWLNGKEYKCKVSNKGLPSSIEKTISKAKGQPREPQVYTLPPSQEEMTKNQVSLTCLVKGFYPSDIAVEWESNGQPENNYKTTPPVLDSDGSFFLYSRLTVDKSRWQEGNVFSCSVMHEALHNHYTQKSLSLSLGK
VL: B2 chain 2
notes: IgG4 S228P with the X02.1 VH; VL E83I, D85T relative to A02.1
The molecule B16 yielded a Kd with Human CD38 [17] of 24.7 nM.

B17: X02.96 (antibody)
heavy: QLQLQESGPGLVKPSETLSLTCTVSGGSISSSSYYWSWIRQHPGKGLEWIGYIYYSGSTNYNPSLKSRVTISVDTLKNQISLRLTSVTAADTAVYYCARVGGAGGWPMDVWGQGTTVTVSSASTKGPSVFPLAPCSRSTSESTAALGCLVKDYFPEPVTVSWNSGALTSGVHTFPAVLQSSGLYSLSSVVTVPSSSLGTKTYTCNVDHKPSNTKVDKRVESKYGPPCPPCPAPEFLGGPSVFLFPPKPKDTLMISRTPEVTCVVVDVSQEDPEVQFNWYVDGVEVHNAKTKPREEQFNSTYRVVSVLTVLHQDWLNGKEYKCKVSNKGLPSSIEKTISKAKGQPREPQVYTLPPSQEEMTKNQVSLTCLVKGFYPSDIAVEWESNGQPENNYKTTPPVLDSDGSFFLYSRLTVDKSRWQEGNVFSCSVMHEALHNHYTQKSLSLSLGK
VL: B2 chain 2 with A8P, I91E, T93D
notes: IgG4 S228P with the X02.1 VH; VL A8P relative to A02.1
For B17, the Kd with Human CD38 [14] worked out at 0.25 nM. The molecule also returned an EC50 in [15] of 30 µg/mL.

B18: X02.101 (antibody, V domains shown)
VH: B2 chain 1 with S76L, F80I, K83R, S85T
VL: B2 chain 2 with V74A, I91E, T93D
notes: IgG4 S228P with the X02.1 VH; VL V(66B)A relative to A02.1
As to B18, the Kd with Human CD38 [14] amounted to 0.0289 nM. Besides, in [15], the EC50 turned out to be 13.7 µg/mL.

B19: X02.71 (antibody, human IgG4 S228P)
heavy: not shown
VL: B2 chain 2 with I91E, T93D
notes: IgG4 S228P; VH I29V relative to X02.1
Regarding B19, in the assay with Human CD38 [11], the Kd worked out at 0.129 nM.

B20: X02.74 (antibody, human IgG4 S228P, V domains shown)
VH: B2 chain 1 with S76L, F80I, K83R, S85T, M108L, D109E
VL: B2 chain 2 with I91E, T93D
notes: IgG4 S228P; VH M(100C)L, D101E relative to X02.1
In the assay with Human CD38 [16], B20 yielded a Kd of 0.0685 nM.

B21: X02.83 (antibody)
heavy: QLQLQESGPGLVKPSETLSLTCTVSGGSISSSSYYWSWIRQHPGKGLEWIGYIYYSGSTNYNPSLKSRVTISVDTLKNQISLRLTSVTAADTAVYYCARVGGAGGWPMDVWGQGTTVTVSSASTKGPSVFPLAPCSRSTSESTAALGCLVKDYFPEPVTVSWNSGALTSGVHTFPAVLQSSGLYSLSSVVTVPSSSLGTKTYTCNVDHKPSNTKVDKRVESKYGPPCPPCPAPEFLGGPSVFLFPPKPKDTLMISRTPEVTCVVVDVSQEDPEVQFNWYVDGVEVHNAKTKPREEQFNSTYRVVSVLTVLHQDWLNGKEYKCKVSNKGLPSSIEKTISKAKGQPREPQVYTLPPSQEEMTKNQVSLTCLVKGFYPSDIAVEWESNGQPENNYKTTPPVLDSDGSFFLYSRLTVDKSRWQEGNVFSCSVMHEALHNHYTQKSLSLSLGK
VL: B2 chain 2 with E16A, I91E, T93D
notes: IgG4 S228P with the X02.1 VH; VL E17A relative to A02.1
As for B21, in [5], the EC50 was determined as 8.2 µg/mL. Also, binding in the assay with Human CD38 [6] was characterised by a dissociation constant (Kd) of 2.69 nM.

B22: X02.82 (antibody, V domains shown)
VH: B2 chain 1 with S76L, F80I, K83R, S85T
VL: B2 chain 2 with Y51R, I91E, T93D
notes: IgG4 S228P with the X02.1 VH; VL Y49R relative to A02.1
B22: in assay [5], the concentration giving a half-maximal response (EC50) came to 3.8 µg/mL.

B23: X02.77 (antibody, human IgG4 S228P)
heavy: not shown
VL: B2 chain 2 with I91E, T93D
notes: IgG4 S228P; VH D101E relative to X02.1
In the assay with Human CD38 [16], B23 returned a dissociation constant (Kd) of 0.00911 nM.

In general, Kd refers to a measure of binding affinity in units of concentration. A lower Kd goes with higher affinity. A word on the EC50: it is the concentration needed to bring the measured effect to its halfway point.
